In patent US20200377551A1 (WAKE FOREST UNIVERSITY HEALTH SCIENCES, published 2020):

Molecular target: T1, Tom20 (UniProt Q15388 1-145)
T1 construct: Endogenous mitochondrial protein used as a specificity control in the MAVS co-IP
T1 sequence (looked up): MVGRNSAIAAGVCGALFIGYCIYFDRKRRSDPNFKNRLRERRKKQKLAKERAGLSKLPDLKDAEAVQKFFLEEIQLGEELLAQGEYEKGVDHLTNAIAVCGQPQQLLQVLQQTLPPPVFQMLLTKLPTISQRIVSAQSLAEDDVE
Test: co-immunoprecipitation with MAVS antibody from HEK293 lysates, immunoblot (FIG. 2E)

B1: mitochondrial antiviral-signaling protein (MAVS) (other)
chain: MPFAEDKTYKYICRNFSNFCNVDVVEILPYLPCLTARDQDRLRATCTLSGNRDTLWHLFNTLQRRPGWVEYFIAALRGCELVDLADEVASVYESYQPRTSDRPPDPLEPPSLPAERPGPPTPAAAHSIPYNSCREKEPSYPMPVQETQAPESPGENSEQALQTLSPRAIPRNPDGGPLESSSDLAALSPLTSSGHQEKDTELGSTHTAGATSSLTPSRGPVSPSVSFQPLARSTPRASRLPGPTGSVVSTGTSFSSSSPGLASAGAAEGKQGAESDQAEPIICSSGAEAPANSLPSKVPTTLMPVNTVALKVPANPASVSTVPSKLPTSSKPPGAVPSNALTNPAPSKLPINSTRAGMVPSKVPTSMVLTKVSASTVPTDGSSRNEETPAAPTPAGATGGSSAWLDSSFENRGLGSELSKPGVLASQVDSPFSGCFEDLAISASTSLGMGPCHGPEENEYKSEGTFGIHVAENPSIQLLEGNPGPPADPDGGPRPQADRKFQEREVPCHRPSPGALWLQVAVTGVLVVTLLVVLYRRRLH
notes: Endogenous full-length MAVS in HEK293 lysates or on isolated mitochondria; also called MAVS protein
B1: no binding.
